Experimental findings from the supplement of paper PMC12764529 are described below.

± gives the half width of the 95% confidence interval.

A short description of the data set: folding stability dG unfold (combined trypsin and chymotrypsin); higher = more stable. The method, then: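 Folding stability of de novo designed mini-proteins (<80 aa, no Cys; designed by TrROS, TrMRF, ProteinMPNN and the joint model) was measured by cDNA display proteolysis with trypsin and chymotrypsin. Each protease was used at 11 concentrations in a threefold dilution series plus a no-protease condition. K50 was inferred by Bayesian fitting of sequencing counts, and dG unfold was derived against a sequence-predicted unfolded-state K50 (Tsuboyama et al. method). Sequences shown include variable-length N-terminal GS-type padding (SAGGSAGG...) inside a display construct carrying a PA tag. Rows were kept only if the AF2 dimer inter-PAE was >15, to exclude likely homo-oligomers.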
Turning to “SAGGSAGGSYPFRIKIVNPNGKKIIPIPYQFDPEDGKLEPFTEDQLDEIAKQLGPNFKKIEIYSAGGSAGGS [r12_514_TrROS]”, the “folding stability dG unfold” value is < -1 kcal/mol.

Turning to “SAGGSAGGWIEIDPNDGKLEILYPPGMNPDELTDFIEEFGFPFKPKSVEYNPDNGMRKVEFKFKSAGGSAGG [r6_396_TrROS]”, the “folding stability dG unfold” value was < -1 kcal/mol.

On to “SAGGSAGGYEIPIKIKITNPDNNKPVTFEIPIRYDKDNGRPPSPEQIARELAERSPGFKITEIESAGGSAGG [r6_821_TrROS]”, for which the “folding stability dG unfold” value was < -1 kcal/mol.

Take “SAGGSAKPYIVIKGEYENPGKKHDMDIQIPPEDLDNPERARELAEEIKDEMRQQGAPVKDVEIEPVSAGGSA [r15_781_TrROS]”: the “folding stability dG unfold” value was < -1 kcal/mol.

With “SAGGSAMPVKIELVERKRDPNSDTYYATVKITNPNKTITLPIKLDVPEEEAEKEVKEKAEEIAKKGSAGGSA [r15_979_JUSTAS]”, the “folding stability dG unfold” value is < -1 kcal/mol.

Regarding “SAGGSAPENDPWVWRVKIPYKKKNPNGEPERREREITFPFKSPEDAENFRDALREDGAEIEPVEPMSAGGSA [r15_117_TrROS]”, the “folding stability dG unfold” value was < -1 kcal/mol.

As to “SAGGSAPFQIKEPDGKTETFPMNDIPPDLIKNFPDVKITMPGGQERKIPPGQKLSPGGMMTIQIPKSAGGSA [r15_733_TrROS]”, the “folding stability dG unfold” value is < -1 kcal/mol.

On to “SAGGSAPIEIEVRLGDKPRTIDIEPNPEGMYPIKVYNDGPGKPKEHMIPPNNLDELKNLDPDRIEISAGGSA [r15_629_TrROS]”, for which the “folding stability dG unfold” value is < -1 kcal/mol.

Take “SAGGSARKITIDVQPHPNGEFPINVKIRGPNGEPKKERPFNFDSPQAAKNKLKDFADKNGYEVEIWSAGGSA [r15_242_TrROS]”: the “folding stability dG unfold” value is < -1 kcal/mol.

On to “SAGGSATIEIDPPHGKIEIEVNVPVYEKRKDPDGKEEPEPQELPPEEAQEFAKMMADTFAQKLNGKSAGGSA [r15_365_TrROS]”, for which the “folding stability dG unfold” value is < -1 kcal/mol.

“SAGGSMETIELTINLGSKTITKTEEVSPGREEELIEKIREEGYPEIKVDKITIKPPDGSTERTIGLKSAGGS [r8_219_JUSTAS]”: the “folding stability dG unfold” value was < -1 kcal/mol.

Turning to “SAGGSMKPSELANLIAEKLREKVDPNKTVRIVLEVGEGPVEFEIPSGKKIDIPENVPIKGYKVEVGSAGGSA [r2_391_TrMRF]”, the “folding stability dG unfold” value was < -1 kcal/mol.

As to “SAGGSMTLYVRLPDRTVEADEVTVPPNGPALVRYRITDPEGEEPEIVVEPEELAELFGLTPEEIEGSAGGSA [r2_262_TrMRF]”, the “folding stability dG unfold” value was < -1 kcal/mol.

As for “SAGGSMTTTLDFSDDSTTTITTTPTPDSSSVRSITTTDASGNPLSSTTLNFDPQGNVTETTTSSAPSAGGSA [r2_260_JUSTAS]”, the “folding stability dG unfold” value is < -1 kcal/mol.

Consider “SAGGSMVVTTEPDGSVTVTTSASSPEEAKASVIAYLKEQGLKVKSLPVEVPPDGSVTVTLPVEPPLESAGGS [r8_253_JUSTAS]”, for which the “folding stability dG unfold” value is < -1 kcal/mol.

“SAGGSVRAVEVRLYRPEGDFPVIEIDVEAPASFPDDPELRERAARSVAGPLTRELLEELGLVPIGPSAGGSA [r2_306_TrMRF]”: the “folding stability dG unfold” value is -0.793 ± 0.52 kcal/mol.

For “SAGGTIKDLLRELPGFDSVEVDEDSGVIYVRNPDRYYKIEIPVQKQPDDDGKDRPITPVKIEPYPPNSAGGS [r16_65_TrROS]”, the “folding stability dG unfold” value is < -1 kcal/mol.

In the case of “SAGGTVEELLRRVPFVEEAVVDVDSGVAYVRVPDRYYVVRVPLVAEPDEDGVLRPRTPVEVEPFAPESAGGS [r16_65_TrMRF]”, the “folding stability dG unfold” value was < -1 kcal/mol.

On to “SAGIKIEWDPDEGYIKIEMPYDSPAEANENIQEIHEKFGLKDVTAERDPNNGTVEHTIRIKNPEALKELSAG [r5_598_TrROS]”, for which the “folding stability dG unfold” value was < -1 kcal/mol.

Consider “SAGITIDELRNQPPKKRVTEVNWNPNQGNYRVEVVRPDPDGKPKKHEYEVNSPQQIRDKLKNGFDYIHISAG [r5_905_TrROS]”, for which the “folding stability dG unfold” value was < -1 kcal/mol.

“SAGMQTKTLAETKENGKITVTTLTTTESGEETTVTETIEVGPVPIPPLTVEVRLRPDGRLEFEYHIPLSAGG [r19_172_JUSTAS]”: the “folding stability dG unfold” value is -0.861 ± 0.51 kcal/mol.

For the sequence “SAGMTTTETIEFPDSTTATVTSVEEGPTPNGTPVTTRTVTVTTYTPLRDADGKLLGEVPQTSTSTLTVASAG [r5_476_JUSTAS]”, the “folding stability dG unfold” value was < -1 kcal/mol.

As for “SAGMVIPATSEEEAEAFAKELGPETGYEVEIEKVPADEPVEDVDPNDILVVLPESGTVYRIHVRRPDEESAG [r5_173_TrMRF]”, the “folding stability dG unfold” value was < -1 kcal/mol.
